Measurements from patent publication US20200392183A1 (Memorial Sloan Kettering, published 2020).

B1: native WT1 peptide NQMNLGATL (SEQ ID NO:5) (peptide)
peptide: NQMNLGATL
notes: Synthetic 9-mer from Genemed Synthesis; also called native peptide; A24-native peptide

Target: T1, HLA-A0201 molecule on T2 cells (TAP-, HLA-A0201+) (human)
T1 construct: Empty, thermolabile HLA-A0201 on T2 cells; also called HLA-A2; HLA-A2 molecule
Assay: T2 stabilization assay, surface HLA-A2 by flow cytometry (BB7.2)
Description: T2 cells (TAP-, HLA-A0201+) were incubated overnight at 37° C. at 1×10⁶ cells/ml in FCS-free RPMI medium supplemented with 10 ug/ml human beta-2m (Sigma, St Louis, Mo., USA) in the absence (negative control) or presence peptides at various final concentrations (50, 10 and 2 ug/ml). Brefeldin A (Sigma) at 5 ug/ml was added to the cultures for the final two hrs of incubation. Then T2 cells were washed and stained with anti-HLA-A2.1 (BB7.2) mAb conjugated to FITC for 30 min at 4° C. and followed by washing with staining buffer (PBS plus 1% FBS and 0.02% azide). The expression of the HLA-A2 on the cell surface was measured by flow cytometry on a FACScalibur (Becton Dickinson) and analyzed with FlowJo 9.6.3 software.

| Binder | binding result |
| --- | --- |
| B1 | no binding (tested: 50, 10 and 2 ug/ml tested) |
| NLMNLGATL (also called A24-het-1; Het24-1) [heteroclitic WT1 analogue peptide NLMNLGATL (SEQ ID NO:6)] | binds |
| NYMNLGATL (also called A24-het-2; Het24-2) [heteroclitic WT1 analogue peptide NYMNLGATL (SEQ ID NO:7)] | no binding (tested: 50, 10 and 2 ug/ml tested) |
